Test results from article PMC11094772.
Read-outs that look alike come from different tables or passages of the source.

Legend:
Assay in all cases: BLI
[1] = target: KRAS4B (residues 1-185, C118S) tethered to nanodiscs (UniProt P01116)
[2] = target: KRAS4B (residues 1-185, C118S) tethered to nanodiscs (UniProt P01116); remark: listed apart in the source
[3] = target: KRAS4B (residues 1-185, C118S) tethered to nanodiscs (UniProt P01116); remark: listed apart in the source
[4] = target: KRAS4B (residues 1-185, C118S) tethered to nanodiscs (UniProt P01116); remark: listed apart in the source

Substance	Kd [1] [nM]	koff [1] [s⁻¹]	kon [1] [M⁻¹ s⁻¹]	Kd [2] [nM]	koff [2] [s⁻¹]	kon [2] [M⁻¹ s⁻¹]	Kd [3] [nM]	koff [3] [s⁻¹]	kon [3] [M⁻¹ s⁻¹]	Kd [4] [nM]	koff [4] [s⁻¹]	kon [4] [M⁻¹ s⁻¹]
D-BRAF: dimeric MBP-BRAF(S365A):14-3-3 complex (2 MBP-BRAF: 2 14-3-3) (from UniProt P15056 1-766)	18.5	0.00185	105000	29.1	0.0034	106000	28.6	0.00269	94100	57.4	0.00395	69000
M-BRAF: monomeric MBP-BRAF(WT):14-3-3 complex (1 MBP-BRAF: 2 14-3-3) (from UniProt P15056 1-766)	68.2	0.0016	24000	65.5	0.00266	44200	93.3	0.00235	25400	177	0.00372	21100
tagless dimeric BRAF(S365A):14-3-3 complex (MBP removed by TEV protease) (from UniProt P15056 1-766)										25.5		
tagless monomeric BRAF(WT):14-3-3 complex (MBP removed by TEV protease) (from UniProt P15056 1-766)										35.5		
